According to US20230052369A1 (Zymeworks, published 2023):

Key:
[1] = target: T1, purified human monomeric 4-1BB (human, UniProt Q07011 24-186); assay: SPR, Ab captured, monomeric 4-1BB injected
T1 construct: the assay used the 4-1BB part released by Factor Xa with the Fc removed; also called h4-1BB; human 4-1BB

[2] = target: T2, 4-1BB human (human 4-1BB ECD-TEV-IgG1 hinge-CH2-CH3-10x His) (human); assay: ELISA, coated 4-1BB-Fc
T2 construct: 4-1BB residues 24-186 fused to TEV site, IgG1 Fc and His tag; the entry is the whole fusion; also called soluble human 4-1BB-Fc
T2 sequence (chain, as listed by the source limits assumed): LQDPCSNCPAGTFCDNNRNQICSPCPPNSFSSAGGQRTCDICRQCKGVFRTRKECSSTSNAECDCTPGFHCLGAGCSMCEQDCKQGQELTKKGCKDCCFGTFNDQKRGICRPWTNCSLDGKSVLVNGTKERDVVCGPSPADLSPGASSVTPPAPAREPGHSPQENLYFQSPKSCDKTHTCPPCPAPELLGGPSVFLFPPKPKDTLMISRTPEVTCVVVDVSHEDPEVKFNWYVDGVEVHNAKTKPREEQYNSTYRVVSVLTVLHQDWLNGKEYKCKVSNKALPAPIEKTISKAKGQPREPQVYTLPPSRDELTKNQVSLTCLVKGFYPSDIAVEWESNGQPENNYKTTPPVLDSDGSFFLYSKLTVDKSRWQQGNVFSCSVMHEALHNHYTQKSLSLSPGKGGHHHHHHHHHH

[3] = target: T3, human 4-1BB, full-length, expressed on cells (human, UniProt Q07011 24-255); assay: cell-based or functional assay
T3 sequence (Q07011 24-255): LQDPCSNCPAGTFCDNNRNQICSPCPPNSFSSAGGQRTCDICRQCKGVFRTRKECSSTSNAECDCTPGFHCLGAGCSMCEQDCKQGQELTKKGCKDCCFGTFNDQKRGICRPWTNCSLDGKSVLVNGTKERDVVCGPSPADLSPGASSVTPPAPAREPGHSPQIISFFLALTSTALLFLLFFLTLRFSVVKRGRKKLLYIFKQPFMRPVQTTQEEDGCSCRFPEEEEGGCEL

[4] = target: T4, Cyno 4-1BB-Flag, on HEK293-6e cells (Cynomolgus (Macaca fascicularis)); assay: CellInsight cell binding, transfected HEK293-6e
T4 construct: also called Cynomolgus 4-1BB; CL#11070
T4 chain: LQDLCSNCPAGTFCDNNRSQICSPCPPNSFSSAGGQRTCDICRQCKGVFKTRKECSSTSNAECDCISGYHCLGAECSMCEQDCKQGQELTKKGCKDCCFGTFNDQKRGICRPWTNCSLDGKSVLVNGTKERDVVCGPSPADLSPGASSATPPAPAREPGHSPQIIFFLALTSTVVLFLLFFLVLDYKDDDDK

[5] = target: T5, Mouse 4-1BB-Flag, on HEK293-6e cells (Mouse (Mus musculus), UniProt P20334 24-208); assay: CellInsight cell binding, transfected HEK293-6e
T5 construct: also called CL#11063
T5 sequence (P20334 other isoform, or with tags, fused parts or gaps limits assumed): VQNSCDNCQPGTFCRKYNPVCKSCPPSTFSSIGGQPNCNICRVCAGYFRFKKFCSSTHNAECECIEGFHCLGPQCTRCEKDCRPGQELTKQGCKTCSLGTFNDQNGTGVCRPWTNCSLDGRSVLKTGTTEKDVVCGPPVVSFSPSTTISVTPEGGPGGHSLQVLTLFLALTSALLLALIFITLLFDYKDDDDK

[6] = target: T1, purified human monomeric 4-1BB; assay: SPR, mean n=3;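 also: antibodies captured on anti-human Fc chip, 4-1BB injected as five-point two-fold series from 40 nM by single-cycle kinetics at 25 °C, sensorgrams fitted to 1:1 Langmuir model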
[7] = target: T6, 4-1BB dog-human (human-dog chimeric 4-1BB ECD-TEV-IgG1 Fc-10x His) (human with dog residues in domain 4); assay: ELISA, coated 4-1BB-Fc
T6 construct: Human 4-1BB ECD with K115Q, C121R, R134Q, R154S and V156A (already in the entry); also called dog-human chimeric 4-1BB; hybrid 4-1BB
T6 sequence (chain, as listed by the source mutant limits assumed): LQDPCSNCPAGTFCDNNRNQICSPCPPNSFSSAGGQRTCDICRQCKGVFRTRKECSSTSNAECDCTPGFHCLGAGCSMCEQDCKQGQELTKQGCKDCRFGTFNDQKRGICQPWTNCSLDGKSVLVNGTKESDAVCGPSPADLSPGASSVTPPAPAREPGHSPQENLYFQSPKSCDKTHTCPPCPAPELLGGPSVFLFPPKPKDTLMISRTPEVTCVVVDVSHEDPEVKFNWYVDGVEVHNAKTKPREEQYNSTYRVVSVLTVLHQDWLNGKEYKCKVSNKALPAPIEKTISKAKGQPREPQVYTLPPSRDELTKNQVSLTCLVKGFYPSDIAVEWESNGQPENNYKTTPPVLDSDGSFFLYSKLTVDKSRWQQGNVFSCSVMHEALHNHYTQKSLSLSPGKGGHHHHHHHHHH

[8] = target: T7, 4-1BB dog (dog 4-1BB ECD-TEV-IgG1 Fc-10x His) (dog); assay: ELISA, coated 4-1BB-Fc
T7 construct: Uniprot E2R1R9 residues 24-186 fused to TEV site, IgG1 Fc and His tag
T7 sequence (chain, as listed by the source limits assumed): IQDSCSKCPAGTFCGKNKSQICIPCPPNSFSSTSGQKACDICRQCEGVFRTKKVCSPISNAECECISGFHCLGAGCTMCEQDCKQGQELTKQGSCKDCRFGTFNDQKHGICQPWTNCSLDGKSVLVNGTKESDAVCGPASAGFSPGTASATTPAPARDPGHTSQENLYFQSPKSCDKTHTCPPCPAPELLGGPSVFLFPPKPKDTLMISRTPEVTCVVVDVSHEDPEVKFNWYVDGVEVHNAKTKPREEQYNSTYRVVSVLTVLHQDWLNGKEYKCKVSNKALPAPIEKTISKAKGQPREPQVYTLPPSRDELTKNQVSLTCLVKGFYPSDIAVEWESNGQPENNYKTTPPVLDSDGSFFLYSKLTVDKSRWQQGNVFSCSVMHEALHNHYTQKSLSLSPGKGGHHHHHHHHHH

[9] = target: T3, human 4-1BB, full-length, expressed on …; assay: flow cytometry, Jurkat-4-1BB
[10] = target: T8, truncated human 4-1BB domain 3 and 4 only construct (residues 86-255), on cells (human, UniProt Q07011 86-255); assay: flow cytometry, transfected 293E6 cells
T8 construct: on 293E6 cells co-transfected with mouse 4-1BB; also called 4-1BB domain 3 and 4 only construct (amino acids 86-255)
T8 sequence (Q07011 86-255): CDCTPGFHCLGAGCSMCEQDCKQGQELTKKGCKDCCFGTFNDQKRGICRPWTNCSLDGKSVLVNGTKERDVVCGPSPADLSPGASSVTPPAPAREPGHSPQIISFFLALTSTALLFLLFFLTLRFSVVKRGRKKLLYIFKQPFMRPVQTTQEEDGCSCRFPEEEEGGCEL

T1 sequence (Q07011 other isoform, or with tags, fused parts or gaps limits assumed): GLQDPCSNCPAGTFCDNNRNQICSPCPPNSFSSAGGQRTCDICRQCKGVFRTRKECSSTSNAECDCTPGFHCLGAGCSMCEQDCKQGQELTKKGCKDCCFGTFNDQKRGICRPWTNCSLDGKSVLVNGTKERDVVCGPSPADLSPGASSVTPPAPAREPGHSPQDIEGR

B1: v28724 (antibody, human IgG1, kappa, L234A L235A, V domains shown)
VH: EVQLVESGGGLIQPGGSLRLSCAVSGFSLTTYAISWVRQAPGKGLEWLGIIWPGGGTNYADSVKGRFTISKDNSKNTLYLQMNSLRAEDTAVYYCARGAGTWYFDVWGQGTLVTVSS
VL: DIQMTQSPSSLSASVGDRVTITCSASQGISNYLNWYQQKPGKAPKLLIYYTSSLHSGVPSRFSGSGSGTDFTFTISSLQPEDIATYYCQQYSKFPWTFGQGTKVEIKR
notes: also called humanized 1C8 H7L1
B1: no binding [1].

B2: v20027 (antibody, human IgG1, kappa, L234A L235A, V domains shown)
VH: QVQLQQPGAELVRPGASVKLSCKASGYTFTSYWINWVKQRPGQGLEWIGNIYPSDNYTNYNQKFKDKATLTVDKSSSTAYMQLSSPTSEDSAVYYCTRGGGIYYENYFDYWGQGTTLTVSS
VL: QIVLTQSPAIMSASPGEKVTMTCSASSSVSYMHWYQQKSGTSPKRWVYDTSKLASGVPARFSGSGSGTSYSLTISSMEAEDVATYYCQQWSSNPPTFGGGTKLEIKR
notes: Mouse-human chimera; also called 3D7
B2: no binding [2].

B3: v16601 (bispecific antibody)
VH: EVQLVQSGAEVKKPGESLRISCKGSGYSFSTYWISWVRQMPGKGLEWMGKIYPGDSYTNYSPSFQGQVTISADKSISTAYLQWSSLKASDTAMYYCARGYGIFDYWGQGTLVTVSS
VL: SYELTQPPSVSVSPGQTASITCSGDNIGDQYAHWYQQKPGQSPVLVIYQDKNRPSGIPERFSGSNSGNTATLTISGTQAMDEADYYCATYTGFGSLAVFGGGTKLTVL
scFv: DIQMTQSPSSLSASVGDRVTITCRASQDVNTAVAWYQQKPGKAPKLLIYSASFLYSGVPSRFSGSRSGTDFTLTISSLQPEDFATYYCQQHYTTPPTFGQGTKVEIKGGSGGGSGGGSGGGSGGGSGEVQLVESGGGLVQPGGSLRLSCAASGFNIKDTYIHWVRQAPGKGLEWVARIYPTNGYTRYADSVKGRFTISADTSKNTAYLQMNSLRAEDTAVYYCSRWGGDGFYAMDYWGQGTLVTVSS
In the case of B3, the “EC50 (pM), 4-1BB NF-kB-luciferase Jurkat reporter in co-culture with SKOV3” value (“EC50 (pM)” for short) [3] is reported as 2620 pM and the “Max activity (RLU), 4-1BB NF-kB-luciferase Jurkat reporter” value (from here on “Max activity (RLU)”) [3] is reported as 27900 RLU.

B4: v16605 (bispecific antibody)
VH: EVQLVQSGAEVKKPGESLRISCKGSGYSFSTYWISWVRQMPGKGLEWMGKIYPGDSYTNYSPSFQGQVTISADKSISTAYLQWSSLKASDTAMYYCARGYGIFDYWGQGTLVTVSS
VL: SYELTQPPSVSVSPGQTASITCSGDNIGDQYAHWYQQKPGQSPVLVIYQDKNRPSGIPERFSGSNSGNTATLTISGTQAMDEADYYCATYTGFGSLAVFGGGTKLTVL
scFv: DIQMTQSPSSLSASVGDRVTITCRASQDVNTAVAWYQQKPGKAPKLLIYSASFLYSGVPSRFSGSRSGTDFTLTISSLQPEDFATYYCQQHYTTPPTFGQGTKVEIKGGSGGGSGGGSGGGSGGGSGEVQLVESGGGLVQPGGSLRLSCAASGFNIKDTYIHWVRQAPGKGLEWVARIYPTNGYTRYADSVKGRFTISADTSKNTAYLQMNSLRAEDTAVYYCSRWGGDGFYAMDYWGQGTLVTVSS
For B4, the “EC50 (pM)” value [3] was 401 pM and the “Max activity (RLU)” value [3] was 92000 RLU.

B5: v20020 (antibody, V domains shown)
VH: QVQLQQPGAELVKPGASVKLSCKASGYTFTSFWINWVKQRPGQGLEWIGNIYPDSSSTNYNEKFKNKATLTVDTSSSTAYMQLSSLTSDDSAVYFCARSLTFDYWGQGTTLTVSS
VL: DVVMTQTPLSLPVSLGDQASISCRSSQSIVHSNGNTYLEWYLQKPGQSPKLLIYKVSNRFSGVPDRFSARGSGTDFSLKISRVEAEDLGVYYCFQGSHVPYTFGGGTKLEIK
notes: Mouse-human chimera: mouse VH on human CH1-hinge-CH2-CH3 (IgG1), mouse VL on human kappa CL; also called 1B2
B5: no binding [4]; no binding [5].

B6: v16675 (bispecific antibody, human IgG1, lambda, L234A L235A)
heavy 1: not shown
heavy 2: EVQLVQSGAEVKKPGESLRISCKGSGYSFSTYWISWVRQMPGKGLEWMGKIYPGDSYTNYSPSFQGQVTISADKSISTAYLQWSSLKASDTAMYYCARGYGIFDYWGQGTLVTVSSASTKGPSVFPLAPSSKSTSGGTAALGCLVKDYFPEPVTVSWNSGALTSGVHTFPAVLQSSGLYSLSSVVTVPSSSLGTQTYICNVNHKPSNTKVDKKVEPKSCDKTHTCPPCPAPELLGGPSVFLFPPKPKDTLMISRTPEVTCVVVDVSHEDPEVKFNWYVDGVEVHNAKTKPREEQYNSTYRVVSVLTVLHQDWLNGKEYKCKVSNKALPAPIEKTISKAKGQPREPQVYVYPPSRDELTKNQVSLTCLVKGFYPSDIAVEWESNGQPENNYKTTPPVLDSDGSFALVSKLTVDKSRWQQGNVFSCSVMHEALHNHYTQKSLSLSPG
light: SYELTQPPSVSVSPGQTASITCSGDNIGDQYAHWYQQKPGQSPVLVIYQDKNRPSGIPERFSGSNSGNTATLTISGTQAMDEADYYCATYTGFGSLAVFGGGTKLTVLGQPKAAPSVTLFPPSSEELQANKATLVCLISDFYPGAVTVAWKADSSPVKAGVETTTPSKQSNNKYAASSYLSLTPEQWKSHRSYSCQVTHEGSTVEKTVAPTECS
With B6 the “EC50 (pM)” value [3] was 56.9 pM and the “Max activity (RLU)” value [3] was 80900 RLU.

B7: v16679 (bispecific antibody, human IgG1, lambda, L234A L235A)
heavy 1: not shown
heavy 2: EVQLVQSGAEVKKPGESLRISCKGSGYSFSTYWISWVRQMPGKGLEWMGKIYPGDSYTNYSPSFQGQVTISADKSISTAYLQWSSLKASDTAMYYCARGYGIFDYWGQGTLVTVSSASTKGPSVFPLAPSSKSTSGGTAALGCLVKDYFPEPVTVSWNSGALTSGVHTFPAVLQSSGLYSLSSVVTVPSSSLGTQTYICNVNHKPSNTKVDKKVEPKSCDKTHTCPPCPAPELLGGPSVFLFPPKPKDTLMISRTPEVTCVVVDVSHEDPEVKFNWYVDGVEVHNAKTKPREEQYNSTYRVVSVLTVLHQDWLNGKEYKCKVSNKALPAPIEKTISKAKGQPREPQVYVYPPSRDELTKNQVSLTCLVKGFYPSDIAVEWESNGQPENNYKTTPPVLDSDGSFALVSKLTVDKSRWQQGNVFSCSVMHEALHNHYTQKSLSLSPG
light: SYELTQPPSVSVSPGQTASITCSGDNIGDQYAHWYQQKPGQSPVLVIYQDKNRPSGIPERFSGSNSGNTATLTISGTQAMDEADYYCATYTGFGSLAVFGGGTKLTVLGQPKAAPSVTLFPPSSEELQANKATLVCLISDFYPGAVTVAWKADSSPVKAGVETTTPSKQSNNKYAASSYLSLTPEQWKSHRSYSCQVTHEGSTVEKTVAPTECS
In the case of B7, the “EC50 (pM)” value [3] is reported as 30.1 pM and the “Max activity (RLU)” value [3] is reported as 131000 RLU.

B8: v12592 (antibody, human IgG1, lambda)
heavy 1: EVQLVQSGAEVKKPGESLRISCKGSGYSFSTYWISWVRQMPGKGLEWMGKIYPGDSYTNYSPSFQGQVTISADKSISTAYLQWSSLKASDTAMYYCARGYGIFDYWGQGTLVTVSSASTKGPSVFPLAPCSRSTSESTAALGCLVKDYFPEPVTVSWNSGALTSGVHTFPAVLQSSGLYSLSSVVTVPSSNFGTQTYTCNVDHKPSNTKVDKTVEPKSCDKTHTCPPCPAPELLGGPSVFLFPPKPKDTLMISRTPEVTCVVVDVSHEDPEVKFNWYVDGVEVHNAKTKPREEQYNSTYRVVSVLTVLHQDWLNGKEYKCKVSNKALPAPIEKTISKAKGQPREPQVYVYPPSRDELTKNQVSLTCLVKGFYPSDIAVEWESNGQPENNYKTTPPVLDSDGSFALVSKLTVDKSRWQQGNVFSCSVMHEALHNHYTQKSLSLSPGK
heavy 2: not shown
light: SYELTQPPSVSVSPGQTASITCSGDNIGDQYAHWYQQKPGQSPVLVIYQDKNRPSGIPERFSGSNSGNTATLTISGTQAMDEADYYCATYTGFGSLAVFGGGTKLTVLGQPKAAPSVTLFPPSSEELQANKATLYCLISDFYPGAVTVAWKADSSPVKAGVETTTPSKQSNNKYAASSYLSITPEQWKSHRSYSCQVTHEGSTVEKTVAPTECS
notes: Control monospecific bivalent anti-4-1BB antibody, Het Fc; clones 2871, 4667, 2872; also called MOR7480.1-IG1; MOR7480.1
B8: binds [4].

B9: v28695 (antibody, human IgG1, kappa, L234A L235A, V domains shown)
VH: QVQLQESGPGLVKPSETLSLTCTVSGFSLISYGVHWIRQPPGKGLEWIGVIWSGGSTDYNPSLKSRVTISVDTSKNQFSLKLSSVTAADTAVYYCARNPLTATVMDYWGQGTLVTVSS
VL: DIQMTQSPSSLSASVGDRVTITCRASQNVGTNVAWFQQKPGKAPKSLIYSASYRDSGVPSRFSGSGSGTDFTLTISSLQPEDFATYYCQQYNSYPLTFGGGTKVEIKR
notes: also called humanized 5G8 H1L1
B9: no binding [1].

B10: v20031 (antibody, human IgG1, kappa, L234A L235A, V domains shown)
VH: QVQLQQSGPELVKPGASVKISCKASGYVFSSYWMNWVKQRPGKGLEWIGRIYPGNGDTNYNGKFKDKATLTADKFSSTAYMQLSNLTSEDSAVYFCASYYELDYWGQGTSVTVSS
VL: DVVMTQTPLSLPVSLGDQASISCRSSQSLVHSNGNTYLHWYLQKPGQSPKLLIYKVSNRFFGVPDRFSGSGSGTDFTLKISRVEAEDLGVYFCSQTTYVPLTFGAGTKLELKR
notes: Mouse-human chimera; also called 4B11; printed as 4B1
B10: no binding [4]; no binding [5].

B11: v20036 (antibody, human IgG1, kappa, L234A L235A, V domains shown)
VH: QVQLQESGPGLVQPTQSLSITCTVSGFSLISYGVHWVRQSPGKGLEWLGVIWSGGSTDYNAAFISRLSISKDNSKSQVFFKMNSLQADDTAIYYCARNPLTATVMDYWGQGTSVTVSS
VL: DIVMTQSQKFMSTSVGDRVSVTCKASQNVGTNVAWYQQKPGQSPKALIYSASYRDSGVPDRFTGSGSGTDFTLTISNVQSEDLAEYLCQQYNSYPLTFGAGTKLELKR
notes: Mouse-human chimera; also called 5G8; 5G8 mouse-human parental chimera
For B11, the Kd [6] was 266 nM, the binding result [2] was “binds” and the binding result [7] was “binds”. The binding result [8] was “no binding”, the EC50 [9] was 16.9 nM and the binding result [10] was “no binding (tested: 2.5 µg of antibody)”. B11: no binding [5].

B12: v20023 (antibody, human IgG1, kappa, L234A L235A, V domains shown)
VH: EVQLVESGGGLVKPGGSRKLSCAASGFTFSEFGMHWVRQAPDKGLKWVAYISSGGSTIYYADTVKGRFTISRDNAKNTLFLQMTSLRSEDTAMYYCARDWVDYWGQGTTLTVSS
VL: NIVMTQSPKSMSMSVGERVTLSCKASENVGSYVSWYQQKPEKSPKLLIYGASNRYTGVPDRFTGSGSATDFTLTISSVQAEDLADYHCGQSYSYPLTFGAGTKLELKR
notes: Mouse-human chimera; also called 1G1; 1G1 mouse-human parental chimera
With B12 the Kd [6] was 49.6 nM, the binding result [2] was “binds” and the binding result [8] was “binds”. The EC50 [9] was 0.337 nM, the binding result [10] was “no binding (tested: 2.5 µg of antibody)” and the binding result [4] was “binds”. B12: no binding [5].
